Assay results published in patent publication US20130315910A1 (Xencor, published 2013).
Residue numbers refer to the chain shown, from its start. Names and notes keep the numbering of the source.

T1: mFcγRIIb (Mus musculus, UniProt P08101)
T1 construct: extracellular region, C-terminal His- and GST-tag; also called mouse FcγRII
T1 sequence (receptor extracellular region, looked up): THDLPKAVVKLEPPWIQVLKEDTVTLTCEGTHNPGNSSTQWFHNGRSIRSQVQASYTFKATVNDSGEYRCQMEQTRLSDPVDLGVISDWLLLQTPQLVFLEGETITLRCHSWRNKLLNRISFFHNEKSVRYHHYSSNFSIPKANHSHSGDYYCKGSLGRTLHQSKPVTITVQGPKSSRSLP

T2: mFcγRIV
T2 construct: also called mouse FcγRIV; not shown: C-terminal His and GST tags (named only on our card)
T2 chain: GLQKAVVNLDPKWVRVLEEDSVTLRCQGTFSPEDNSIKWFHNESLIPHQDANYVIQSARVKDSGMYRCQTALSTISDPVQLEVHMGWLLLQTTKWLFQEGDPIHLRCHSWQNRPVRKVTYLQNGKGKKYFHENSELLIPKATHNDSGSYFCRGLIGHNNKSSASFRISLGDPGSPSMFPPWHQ

T3: cynoFcγRIIb (Macaca fascicularis, UniProt A0A140HDP4)
T3 construct: extracellular region, C-terminal His- and GST-tag; also called cynomolgus monkey FcγRIIb
T3 sequence (receptor extracellular region): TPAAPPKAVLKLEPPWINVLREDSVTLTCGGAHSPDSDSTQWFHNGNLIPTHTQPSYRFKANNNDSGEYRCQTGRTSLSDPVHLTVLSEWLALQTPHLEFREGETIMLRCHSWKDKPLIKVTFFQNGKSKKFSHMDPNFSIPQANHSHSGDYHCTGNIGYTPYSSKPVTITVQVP

T4: human FcγRIIa (131H), His- and GST-tagged (human, UniProt P12318 34-217)
T4 construct: also called H131 FcγRIIa; HIIa; not shown: 6xHis and GST tags of the pTT5 vector
T4 sequence (looked up): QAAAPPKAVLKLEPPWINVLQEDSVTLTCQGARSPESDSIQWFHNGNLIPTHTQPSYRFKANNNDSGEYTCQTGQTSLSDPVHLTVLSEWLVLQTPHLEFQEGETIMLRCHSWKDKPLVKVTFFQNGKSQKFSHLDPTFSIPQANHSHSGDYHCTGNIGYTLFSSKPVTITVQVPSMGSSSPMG

T5: human FcγRIIa (131R), His- and GST-tagged (human, UniProt P12318 34-217)
T5 construct: Expressed in HEK293T cells, purified by nickel chromatography; also called R131 FcγRIIa; not shown: 6xHis and GST tags of the pTT5 vector
T5 sequence (looked up): T4 sequence (looked up) with H134R

T6: human FcγRIIb receptor protein (R&D Systems) (human, UniProt P31994 46-217)
T6 construct: Bought protein injected over captured antibody in Biacore; also called CD32b
T6 sequence (looked up): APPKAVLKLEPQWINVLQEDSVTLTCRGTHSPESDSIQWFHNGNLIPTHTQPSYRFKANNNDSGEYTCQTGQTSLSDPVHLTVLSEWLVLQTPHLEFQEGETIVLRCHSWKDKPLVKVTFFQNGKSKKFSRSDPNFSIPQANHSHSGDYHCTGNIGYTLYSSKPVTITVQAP

B1: A327G (antibody, human IgG1, kappa)
heavy: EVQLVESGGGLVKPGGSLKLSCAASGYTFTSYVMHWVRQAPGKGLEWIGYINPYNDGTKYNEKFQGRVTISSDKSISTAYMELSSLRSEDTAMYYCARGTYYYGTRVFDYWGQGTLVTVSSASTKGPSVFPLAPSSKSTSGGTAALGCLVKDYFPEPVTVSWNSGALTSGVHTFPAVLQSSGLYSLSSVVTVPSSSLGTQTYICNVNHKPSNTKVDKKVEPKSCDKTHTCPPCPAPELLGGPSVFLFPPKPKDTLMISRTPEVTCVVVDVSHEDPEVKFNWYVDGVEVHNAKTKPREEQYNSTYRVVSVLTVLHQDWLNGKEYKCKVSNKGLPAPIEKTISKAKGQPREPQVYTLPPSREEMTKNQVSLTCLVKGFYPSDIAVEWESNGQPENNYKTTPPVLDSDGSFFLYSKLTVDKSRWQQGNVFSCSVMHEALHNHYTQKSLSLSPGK
light: DIVMTQSPATLSLSPGERATLSCRSSKSLQNVNGNTYLYWFQQKPGQSPQLLIYRMSNLNSGVPDRFSGSGSGTEFTLTISSLEPEDFAVYYCMQHLEYPITFGAGTKLEIKRTVAAPSVFIFPPSDEQLKSGTASVVCLLNNFYPREAKVQWKVDNALQSGNSQESVTEQDSKDSTYSLSSTLTLSKADYEKHKVYACEVTHQGLSSPVTKSFNRGEC
notes: HuAM4G7 anti-CD19 IgG1 (m1) with this Fc substitution, EU index; copies: 2 + 2
B2: S267E/A327D (antibody, human IgG1, kappa)
heavy: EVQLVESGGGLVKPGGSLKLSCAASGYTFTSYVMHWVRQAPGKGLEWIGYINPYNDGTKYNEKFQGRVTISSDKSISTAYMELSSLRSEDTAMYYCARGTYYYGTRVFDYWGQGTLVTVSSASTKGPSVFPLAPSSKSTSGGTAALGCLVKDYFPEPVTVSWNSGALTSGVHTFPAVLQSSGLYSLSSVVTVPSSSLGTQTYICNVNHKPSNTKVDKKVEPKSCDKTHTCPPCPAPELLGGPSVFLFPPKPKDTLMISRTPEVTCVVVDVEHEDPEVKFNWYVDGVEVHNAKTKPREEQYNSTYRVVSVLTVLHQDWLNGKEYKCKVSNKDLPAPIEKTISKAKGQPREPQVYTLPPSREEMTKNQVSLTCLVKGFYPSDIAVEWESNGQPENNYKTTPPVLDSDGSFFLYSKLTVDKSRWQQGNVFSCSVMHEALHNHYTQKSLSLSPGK
light: B1 light
notes: HuAM4G7 anti-CD19 IgG1 (m1) with these Fc substitutions, EU index; copies: 2 + 2
B3: H268D/A327D (antibody, human IgG1, kappa)
heavy: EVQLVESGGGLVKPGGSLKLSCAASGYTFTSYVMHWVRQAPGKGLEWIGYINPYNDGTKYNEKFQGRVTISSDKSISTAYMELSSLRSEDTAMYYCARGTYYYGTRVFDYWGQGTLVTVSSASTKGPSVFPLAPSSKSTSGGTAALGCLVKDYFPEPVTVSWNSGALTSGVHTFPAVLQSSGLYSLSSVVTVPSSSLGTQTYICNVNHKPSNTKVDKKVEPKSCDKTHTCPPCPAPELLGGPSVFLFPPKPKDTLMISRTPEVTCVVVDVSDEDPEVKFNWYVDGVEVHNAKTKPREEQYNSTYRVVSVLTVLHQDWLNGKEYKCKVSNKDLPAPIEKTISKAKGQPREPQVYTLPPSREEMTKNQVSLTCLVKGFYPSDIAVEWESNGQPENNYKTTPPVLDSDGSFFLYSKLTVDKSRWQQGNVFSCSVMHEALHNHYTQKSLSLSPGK
light: B1 light
notes: as for B2
B4: S239D/S267D (antibody, human IgG1, kappa)
heavy: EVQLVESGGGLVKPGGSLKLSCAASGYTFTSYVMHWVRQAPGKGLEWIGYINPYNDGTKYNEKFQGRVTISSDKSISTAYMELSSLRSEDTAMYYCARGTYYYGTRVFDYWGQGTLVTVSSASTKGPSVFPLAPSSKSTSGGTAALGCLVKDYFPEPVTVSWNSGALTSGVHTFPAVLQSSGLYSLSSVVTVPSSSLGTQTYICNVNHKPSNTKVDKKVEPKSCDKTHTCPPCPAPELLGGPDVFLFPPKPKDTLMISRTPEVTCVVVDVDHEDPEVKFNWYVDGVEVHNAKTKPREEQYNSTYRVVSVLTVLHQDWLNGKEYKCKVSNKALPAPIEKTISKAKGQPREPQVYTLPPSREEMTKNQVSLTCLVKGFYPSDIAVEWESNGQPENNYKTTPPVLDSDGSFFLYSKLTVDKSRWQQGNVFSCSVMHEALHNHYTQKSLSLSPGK
light: B1 light
notes: as for B2
B5: S267D/H268D (antibody, human IgG1, kappa)
heavy: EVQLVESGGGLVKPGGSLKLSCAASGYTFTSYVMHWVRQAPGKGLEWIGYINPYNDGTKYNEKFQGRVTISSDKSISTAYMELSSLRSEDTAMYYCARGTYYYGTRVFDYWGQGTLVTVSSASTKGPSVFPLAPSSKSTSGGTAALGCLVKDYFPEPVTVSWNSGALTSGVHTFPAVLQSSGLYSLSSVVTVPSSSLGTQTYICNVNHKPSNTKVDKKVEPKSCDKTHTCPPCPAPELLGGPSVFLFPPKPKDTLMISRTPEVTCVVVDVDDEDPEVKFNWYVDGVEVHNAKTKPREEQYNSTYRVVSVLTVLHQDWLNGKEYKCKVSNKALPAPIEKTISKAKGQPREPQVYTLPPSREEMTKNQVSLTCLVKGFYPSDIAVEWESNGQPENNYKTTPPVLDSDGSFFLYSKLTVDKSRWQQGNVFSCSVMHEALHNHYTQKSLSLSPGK
light: B1 light
notes: as for B2
B6: S267E/L328Q (antibody, human IgG1, kappa)
heavy: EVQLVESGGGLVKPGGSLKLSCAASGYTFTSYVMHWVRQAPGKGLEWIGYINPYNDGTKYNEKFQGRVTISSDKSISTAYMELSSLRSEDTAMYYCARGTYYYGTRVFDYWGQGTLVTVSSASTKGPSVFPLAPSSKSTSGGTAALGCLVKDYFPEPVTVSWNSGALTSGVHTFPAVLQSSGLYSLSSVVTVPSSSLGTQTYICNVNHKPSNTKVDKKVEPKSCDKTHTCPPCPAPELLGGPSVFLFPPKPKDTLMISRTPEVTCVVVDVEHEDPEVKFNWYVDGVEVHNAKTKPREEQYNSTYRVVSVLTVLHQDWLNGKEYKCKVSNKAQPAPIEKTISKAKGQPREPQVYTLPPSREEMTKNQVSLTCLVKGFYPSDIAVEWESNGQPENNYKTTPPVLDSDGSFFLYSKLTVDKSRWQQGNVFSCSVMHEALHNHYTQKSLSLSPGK
light: B1 light
notes: as for B2
B7: G236S (antibody, human IgG1, kappa)
heavy: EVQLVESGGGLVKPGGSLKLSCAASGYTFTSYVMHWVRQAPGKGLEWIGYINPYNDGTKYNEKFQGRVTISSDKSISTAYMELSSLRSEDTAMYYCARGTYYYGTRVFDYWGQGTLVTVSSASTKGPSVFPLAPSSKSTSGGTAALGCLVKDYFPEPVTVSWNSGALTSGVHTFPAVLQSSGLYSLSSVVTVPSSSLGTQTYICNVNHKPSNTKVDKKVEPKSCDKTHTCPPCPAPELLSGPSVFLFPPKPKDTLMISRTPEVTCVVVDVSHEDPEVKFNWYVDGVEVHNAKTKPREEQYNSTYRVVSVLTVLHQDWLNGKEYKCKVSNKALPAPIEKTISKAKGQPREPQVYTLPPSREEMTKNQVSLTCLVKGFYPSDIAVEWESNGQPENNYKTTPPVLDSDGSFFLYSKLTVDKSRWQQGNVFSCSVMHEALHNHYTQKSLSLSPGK
light: B1 light
notes: as for B1
B8: S267E/H268E/L328F (antibody, human IgG1, kappa)
heavy: EVQLVESGGGLVKPGGSLKLSCAASGYTFTSYVMHWVRQAPGKGLEWIGYINPYNDGTKYNEKFQGRVTISSDKSISTAYMELSSLRSEDTAMYYCARGTYYYGTRVFDYWGQGTLVTVSSASTKGPSVFPLAPSSKSTSGGTAALGCLVKDYFPEPVTVSWNSGALTSGVHTFPAVLQSSGLYSLSSVVTVPSSSLGTQTYICNVNHKPSNTKVDKKVEPKSCDKTHTCPPCPAPELLGGPSVFLFPPKPKDTLMISRTPEVTCVVVDVEEEDPEVKFNWYVDGVEVHNAKTKPREEQYNSTYRVVSVLTVLHQDWLNGKEYKCKVSNKAFPAPIEKTISKAKGQPREPQVYTLPPSREEMTKNQVSLTCLVKGFYPSDIAVEWESNGQPENNYKTTPPVLDSDGSFFLYSKLTVDKSRWQQGNVFSCSVMHEALHNHYTQKSLSLSPGK
light: B1 light
notes: as for B2
B9: L235D/S239D (antibody, human IgG1, kappa)
heavy: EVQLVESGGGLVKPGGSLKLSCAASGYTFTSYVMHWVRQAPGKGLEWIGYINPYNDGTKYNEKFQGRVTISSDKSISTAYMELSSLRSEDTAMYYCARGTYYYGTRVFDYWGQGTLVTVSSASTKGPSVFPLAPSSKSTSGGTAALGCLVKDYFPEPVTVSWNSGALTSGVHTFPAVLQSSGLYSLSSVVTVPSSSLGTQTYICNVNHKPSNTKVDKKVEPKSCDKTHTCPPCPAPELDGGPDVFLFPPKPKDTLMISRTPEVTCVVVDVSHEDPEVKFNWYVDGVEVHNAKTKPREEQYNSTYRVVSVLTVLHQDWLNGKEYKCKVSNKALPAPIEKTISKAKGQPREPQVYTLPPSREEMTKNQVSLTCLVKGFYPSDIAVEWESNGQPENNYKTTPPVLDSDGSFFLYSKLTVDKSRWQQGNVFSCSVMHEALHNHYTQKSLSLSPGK
light: B1 light
notes: as for B2
B10: S239D/S267E/L328F (antibody, human IgG1, kappa)
heavy: B8 heavy with S243D, E272H
light: B1 light
notes: as for B2
B11: S239D/H268D (antibody, human IgG1, kappa)
heavy: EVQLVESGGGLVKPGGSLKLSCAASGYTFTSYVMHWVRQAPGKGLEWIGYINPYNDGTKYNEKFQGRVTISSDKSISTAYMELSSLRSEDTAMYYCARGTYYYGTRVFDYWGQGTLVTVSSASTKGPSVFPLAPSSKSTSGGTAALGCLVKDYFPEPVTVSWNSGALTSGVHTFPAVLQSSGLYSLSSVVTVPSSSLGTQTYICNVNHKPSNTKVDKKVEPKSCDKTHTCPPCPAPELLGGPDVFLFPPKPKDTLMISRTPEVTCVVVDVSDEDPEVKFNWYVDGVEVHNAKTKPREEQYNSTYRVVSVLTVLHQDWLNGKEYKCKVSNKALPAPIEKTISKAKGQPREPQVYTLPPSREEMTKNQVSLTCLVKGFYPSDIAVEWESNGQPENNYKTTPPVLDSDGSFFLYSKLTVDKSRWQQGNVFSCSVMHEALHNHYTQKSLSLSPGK
light: B1 light
notes: as for B2
B12: L235Y/S267E/H268E (antibody, human IgG1, kappa)
heavy: B8 heavy with L239Y, F332L
light: B1 light
notes: as for B2
B13: L235Y/S267E/L328F (antibody, human IgG1, kappa)
heavy: B8 heavy with L239Y, E272H
light: B1 light
notes: as for B2
B14: L235Y/S239D/S267E (antibody, human IgG1, kappa)
heavy: B8 heavy with L239Y, S243D, E272H, F332L
light: B1 light
notes: as for B2

Each binder was assayed against T1, mFcγRIIb (assay: SPR).

Row | Fold vs WT IgG1 (off-rate) [fold] | Fold vs WT IgG1 (Kd) [fold] | Binder
1 | 1.45 | – | B1
2 | 0.971 | – | B2
3 | 5.09 | 3.22 | B3
4 | – | 1.98 | B4
5 | 0.968 | 0.902 | B5
6 | 0.881 | – | B6

Each binder was assayed against T7, cynoFcγRIIIa (Macaca fascicularis, UniProt Q8SPW2) (assay: SPR).
T7 construct: extracellular region, C-terminal His- and GST-tag; also called cynomolgus monkey FcγRIIIa
T7 sequence (Q8SPW2 17-208): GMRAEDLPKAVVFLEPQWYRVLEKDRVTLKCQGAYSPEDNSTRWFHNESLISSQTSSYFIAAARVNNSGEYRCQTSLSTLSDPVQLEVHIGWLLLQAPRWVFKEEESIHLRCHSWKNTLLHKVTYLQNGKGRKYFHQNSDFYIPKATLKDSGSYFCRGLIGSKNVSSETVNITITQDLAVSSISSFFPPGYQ

Row | Fold vs WT IgG1 (Kd) [fold] | Fold vs WT IgG1 (off-rate) [fold] | Binder
7 | 1.45 | – | B7
8 | 1.04 | – | B8
9 | – | 0.443 | B1
10 | 1.73 | – | B3
11 | 7.66 | 2.73 | B4
12 | – | 1.41 | B9
13 | 1.17 | – | B10
14 | 5.33 | – | B5
15 | – | 0.124 | B6
16 | 8.68 | 3.62 | B11

Biological target: T2, mFcγRIV
Test: SPR

Row | Fold vs WT IgG1 (off-rate) [fold] | Fold vs WT IgG1 (Kd) [fold] | Binder
17 | 1.23 | – | B1
18 | – | 0.443 | B3
19 | 1.88 | 1 | B4
20 | 1.57 | – | B9
21 | – | 0.598 | B5
22 | 0.454 | – | B6
23 | 2.21 | 1.06 | B11

The binders below were run against T3, cynoFcγRIIb (assay: SPR).

Row | Fold vs WT IgG1 (Kd) [fold] | Fold vs WT IgG1 (off-rate) [fold] | Binder
24 | 3.55 | – | B7
25 | 3.51 | – | B8
26 | – | 0.903 | B1
27 | – | 0.697 | B2
28 | 1.47 | 1.8 | B3
29 | 1.79 | – | B4
30 | 4.58 | – | B10
31 | 1.86 | 1.96 | B5
32 | – | 0.367 | B6

Each binder was assayed against T4, human FcγRIIa (131H), His- and … (assay: SPR).

Row | Fold vs WT IgG1 [fold] | Kd [nM] | Binder
33 | 3.76 | 172 | B7
34 | 0.157 | 4130 | B12
35 | 0.826 | 783 | B8
36 | 0.758 | 853 | B13
37 | 1.05 | 617 | B14
38 | 1.71 | 378 | B10

Each binder was assayed against T8, human FcγRI receptor protein (R&D Systems) (human, UniProt P12314 16-288) (assay: SPR).
T8 construct: also called soluble FcγRI; solFcγRI
T8 sequence (P12314 16-288 limits assumed): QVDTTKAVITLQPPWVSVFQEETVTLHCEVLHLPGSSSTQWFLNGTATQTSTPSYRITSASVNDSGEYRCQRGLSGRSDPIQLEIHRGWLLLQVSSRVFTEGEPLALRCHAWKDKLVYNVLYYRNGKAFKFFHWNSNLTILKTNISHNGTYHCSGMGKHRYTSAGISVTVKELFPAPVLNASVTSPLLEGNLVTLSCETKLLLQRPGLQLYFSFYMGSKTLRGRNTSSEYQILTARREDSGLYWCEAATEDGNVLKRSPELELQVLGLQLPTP

Row | Fold vs WT IgG1 [fold] | Kd [nM] | Binder
39 | 0.0268 | 12.3 | B7
40 | 0.0103 | 32.1 | B12
41 | 0.991 | 0.333 | B8
42 | 0.00436 | 75.5 | B13
43 | 1.66 | 0.198 | B2
44 | 1.07 | 0.307 | B14
45 | 1.45 | 0.227 | B10

Each binder was assayed against T5, human FcγRIIa (131R), His- and … (assay: SPR).

Row | Fold vs WT IgG1 [fold] | Kd [nM] | Binder
46 | 2.33 | 369 | B7
47 | 48.2 | 17.8 | B12
48 | 253 | 3.4 | B8
49 | 0.319 | 2690 | B1
50 | 171 | 5.02 | B13
51 | 16.7 | 51.3 | B2
52 | 98.9 | 8.68 | B14
53 | 416 | 2.06 | B10

The binders below were run against T6, human FcγRIIb receptor protein (R&D …) (assay: SPR).

Row | Fold vs WT IgG1 [fold] | Kd [nM] | Binder
54 | 1.02 | 1440 | B7
55 | 69.9 | 21 | B12
56 | 344 | 4.26 | B8
57 | 0.353 | 4160 | B1
58 | 187 | 7.83 | B13
59 | 21.2 | 69.1 | B2
60 | 7.68 | 191 | B3
61 | 22.3 | 65.9 | B4
62 | 116 | 12.6 | B14
63 | 4.11 | 357 | B9
64 | 428 | 3.43 | B10
65 | 14.2 | 103 | B5
66 | 12.1 | 121 | B6
67 | 14.4 | 102 | B11

These binders were tested against T9, human FcγRIIIa (158V), His- and GST-tagged (human, UniProt P08637 17-208) (assay: SPR).
T9 construct: also called V158 FcγRIIIa; VIIIa; not shown: 6xHis and GST tags of the pTT5 vector
T9 sequence (P08637 17-208 F176V): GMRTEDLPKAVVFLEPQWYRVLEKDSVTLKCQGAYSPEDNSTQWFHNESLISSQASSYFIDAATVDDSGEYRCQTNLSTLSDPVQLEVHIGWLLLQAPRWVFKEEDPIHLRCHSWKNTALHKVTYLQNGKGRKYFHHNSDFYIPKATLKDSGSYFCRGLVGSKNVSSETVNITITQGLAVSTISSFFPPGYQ

Row | Fold vs WT IgG1 [fold] | Kd [nM] | binding result | Binder
68 | 0.00367 | 52200 | – | B7
69 | 0.428 | 447 | – | B12
70 | 0.092 | 2080 | – | B8
71 | – | – | no binding | B13
72 | 0.00199 | 96300 | – | B2
73 | 2.6 | 73.5 | – | B14
74 | 0.216 | 887 | – | B10
